According to patent US20050053990:

Key:
Test in all cases: cleavage_in_vitro
[1] = system: SfaNI; conditions: DNA strand 100% cleaved
[2] = system: Cac8I; conditions: DNA strand 100% cleaved; NEBuffer 3, 37 C, 4 h; Table 1 does not name the oligos
[3] = system: AvaII; conditions: DNA strand 100% cleaved; NEBuffer 4 (Mg2+), 37 C, 4 h; Table 1 does not name the oligos
[4] = system: Sau3AI; conditions: DNA strand 0% cleaved
[5] = system: BtsI; conditions: DNA strand 100% cleaved

SfaNI site RNA/DNA duplex gave an activity (% RNA strand cleaved) [1] of 100.
“UAAAGGCGCGCCCGCAUGCUUUA / TAAAGCATGCGGGCGCGCCTTTA [I/L RNA/DNA duplex]” gave an activity (% RNA strand cleaved) [2] of 100.
With “AAAGCUAAGCGGACCGAGUCGACUGCAUCGUCAUGAAAAAA / TTTTTTCATGACGATGCAGTCGACTCGGTCCGCTTAGCTTT [A/B RNA/DNA duplex]” the activity (% RNA strand cleaved) [3] was 100.
Substance Sau3AI site RNA/DNA duplex has an activity (% RNA strand cleaved) [4] of 80.
Work on BtsI site RNA/DNA duplex yielded an activity (% RNA strand cleaved) [5] of 70.
